From FireProtDB (doi:10.1016/j.jmb.2005.05.056)
Values joined by “and” are separate entries in the source; they are usually repeats but may differ in a detail not shown here. Equal values may be shown once.

B1: Small ribosomal subunit protein bS6, P23370 (parent)
chain: MRRYEVNIVLNPNLDQSQLALEKEIIQRALENYGARVEKVEELGLRRLAYPIAKDPQGYFLWYQVEMPEDRVNDLARELRIRDNVRRVMVVKSQEPFLANA

Variants of: B1
Conditions: Thermus thermophilus; pH 8; 25 °C; GdnHCl; Fluorescence; Tris-HCl 50 mM; reversible: No; structure 1RIS; whole UniProt chain shown

Variant	ddG of mutation (higher = less stable)	denaturant m value	denaturant midpoint (higher = more stable)	unfolding free energy
A35G	0.6 kcal/mol and 0.7 kcal/mol	2.91 kcal/mol/M and 2.95 kcal/mol/M	3.03 M and 3.5 M	8.8 kcal/mol and 10.3 kcal/mol
E22Q	–	–	–	7.6 kcal/mol and 8.9 kcal/mol and 11.4 kcal/mol
V65A	–	2.61 kcal/mol/M and 2.77 kcal/mol/M and 2.84 kcal/mol/M	–	–
V85A	2.9 kcal/mol and 2.3 kcal/mol	2.51 kcal/mol/M and 2.84 kcal/mol/M	2.05 M and 2.54 M	5.1 kcal/mol and 7.2 kcal/mol
L75A	0.9 kcal/mol and 0.8 kcal/mol and 0.7 kcal/mol	3.13 kcal/mol/M and 2.95 kcal/mol/M and 3.19 kcal/mol/M	2.71 M and 2.95 M and 3.24 M	8.5 kcal/mol and 8.7 kcal/mol and 10.3 kcal/mol
V88A	1.1 kcal/mol and 3 kcal/mol and 2 kcal/mol	3.12 kcal/mol/M and 2.01 kcal/mol/M and 2.82 kcal/mol/M	2.66 M and 2.9 M and 3.2 M	8.3 kcal/mol and 6.5 kcal/mol and 9 kcal/mol
I26A	2.8 kcal/mol and 3 kcal/mol and 3.2 kcal/mol	2.47 kcal/mol/M and 2.61 kcal/mol/M and 2.62 kcal/mol/M	2.09 M and 2.46 M and 2.97 M	5.2 kcal/mol and 6.4 kcal/mol and 7.8 kcal/mol
Y33A	–	2.83 kcal/mol/M and 3.26 kcal/mol/M and 2.34 kcal/mol/M	3.05 M and 3.65 M and 3.82 M	8.6 kcal/mol and 11.9 kcal/mol and 8.9 kcal/mol
I8A	2.9 kcal/mol and 4.4 kcal/mol	2.78 kcal/mol/M and 2.44 kcal/mol/M and 2.83 kcal/mol/M	1.82 M and 2.05 M and 2.35 M	5.1 kcal/mol and 5 kcal/mol and 6.6 kcal/mol
